Columns and labels:
[1] = biological target: BSH (Arabidopsis thaliana); test: TAP-MS, N-terminal GS tag
[2] = biological target: CHR12 (Arabidopsis thaliana); test: TAP-MS, N-terminal GS tag
[3] = biological target: CKA2 (casein kinase II alpha chain 2) (Arabidopsis thaliana); test: TAP-MS, N-terminal GS tag
[4] = biological target: CRU1 (CRUCIFERINA) (Arabidopsis thaliana); test: TAP-MS, N-terminal GS tag
[5] = biological target: CRU3 (CRUCIFERIN 3) (Arabidopsis thaliana); test: TAP-MS, N-terminal GS tag
[6] = biological target: DNA-binding bromodomain-containing protein (AT1G20670) (Arabidopsis thaliana); test: TAP-MS, N-terminal GS tag
[7] = biological target: DNA-binding bromodomain-containing protein, similar to At1g20670 (AT5G55040) (Arabidopsis thaliana); test: TAP-MS, N-terminal GS tag
[8] = biological target: LFR (armadillo-repeat protein) (Arabidopsis thaliana); test: TAP-MS, N-terminal GS tag
[9] = biological target: RD21 (RESPONSIVE TO …ON 21) (Arabidopsis thaliana); test: TAP-MS, N-terminal GS tag
[10] = biological target: SNF2 protein (BRM) (Arabidopsis thaliana); test: TAP-MS, N-terminal GS tag
[11] = biological target: SWI3A (Arabidopsis thaliana); test: TAP-MS, N-terminal GS tag
[12] = biological target: SWI3B (Arabidopsis thaliana); test: TAP-MS, N-terminal GS tag
[13] = biological target: SWI3D (Arabidopsis thaliana); test: TAP-MS, N-terminal GS tag
[14] = biological target: T1, SWIRM domain-containing protein (SWI3C) (Arabidopsis thaliana); test: TAP-MS, N-terminal GS tag
T1 sequence (Q9XI07 1-807, looked up): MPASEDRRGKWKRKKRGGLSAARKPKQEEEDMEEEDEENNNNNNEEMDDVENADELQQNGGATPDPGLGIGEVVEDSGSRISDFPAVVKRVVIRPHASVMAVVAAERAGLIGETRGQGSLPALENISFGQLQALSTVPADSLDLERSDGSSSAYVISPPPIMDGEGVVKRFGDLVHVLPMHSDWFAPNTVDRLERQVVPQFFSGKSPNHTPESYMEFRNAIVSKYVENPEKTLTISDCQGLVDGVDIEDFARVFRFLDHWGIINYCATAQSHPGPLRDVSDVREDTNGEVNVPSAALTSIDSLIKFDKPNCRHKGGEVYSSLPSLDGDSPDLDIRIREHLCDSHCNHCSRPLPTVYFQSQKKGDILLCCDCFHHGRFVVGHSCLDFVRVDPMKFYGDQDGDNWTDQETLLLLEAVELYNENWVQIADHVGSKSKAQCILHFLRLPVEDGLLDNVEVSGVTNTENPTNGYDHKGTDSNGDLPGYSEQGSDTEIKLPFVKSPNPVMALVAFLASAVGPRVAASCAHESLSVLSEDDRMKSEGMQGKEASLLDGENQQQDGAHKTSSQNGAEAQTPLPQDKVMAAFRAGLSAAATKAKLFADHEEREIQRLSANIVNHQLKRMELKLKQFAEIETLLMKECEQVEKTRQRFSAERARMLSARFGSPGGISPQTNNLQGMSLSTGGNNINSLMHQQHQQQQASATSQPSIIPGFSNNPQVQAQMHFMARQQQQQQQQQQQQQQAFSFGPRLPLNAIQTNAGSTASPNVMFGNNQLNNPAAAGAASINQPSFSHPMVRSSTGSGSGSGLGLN

[15] = biological target: T2, actin-related protein 4 (ARP4) (Arabidopsis thaliana); test: TAP-MS, N-terminal GS tag
T2 sequence (Q84M92 1-441, looked up): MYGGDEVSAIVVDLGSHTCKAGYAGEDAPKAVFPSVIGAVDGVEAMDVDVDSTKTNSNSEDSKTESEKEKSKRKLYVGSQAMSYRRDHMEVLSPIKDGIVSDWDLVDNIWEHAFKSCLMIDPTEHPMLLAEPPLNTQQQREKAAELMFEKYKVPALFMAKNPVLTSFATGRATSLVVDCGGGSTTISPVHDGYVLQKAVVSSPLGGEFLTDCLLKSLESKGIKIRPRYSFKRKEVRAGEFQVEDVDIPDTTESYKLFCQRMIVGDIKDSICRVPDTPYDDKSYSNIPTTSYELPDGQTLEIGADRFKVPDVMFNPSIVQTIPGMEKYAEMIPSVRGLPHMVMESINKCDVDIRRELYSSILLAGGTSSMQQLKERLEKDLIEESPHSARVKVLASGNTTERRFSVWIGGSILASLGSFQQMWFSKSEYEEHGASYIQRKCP

[16] = biological target: T3, actin-related protein 7 (ARP7) (Arabidopsis thaliana); test: TAP-MS, N-terminal GS tag
T3 sequence (Q8L4Y5 1-363, looked up): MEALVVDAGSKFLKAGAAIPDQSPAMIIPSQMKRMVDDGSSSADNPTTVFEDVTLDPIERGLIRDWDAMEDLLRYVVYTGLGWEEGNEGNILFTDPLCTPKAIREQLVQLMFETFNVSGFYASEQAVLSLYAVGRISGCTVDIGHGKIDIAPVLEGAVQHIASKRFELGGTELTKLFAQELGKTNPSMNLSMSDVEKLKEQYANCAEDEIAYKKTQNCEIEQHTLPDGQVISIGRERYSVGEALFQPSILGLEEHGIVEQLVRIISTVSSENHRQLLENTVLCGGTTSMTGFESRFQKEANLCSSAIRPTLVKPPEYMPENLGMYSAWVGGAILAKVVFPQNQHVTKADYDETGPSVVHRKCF

[17] = biological target: electron carrier (AT1G32730) (Arabidopsis thaliana); test: TAP-MS, N-terminal GS tag
[18] = biological target: expressed protein, similar to At3g03460 (AT5G17510) (Arabidopsis thaliana); test: TAP-MS, N-terminal GS tag
[19] = biological target: expressed protein, similar to At4g22320 (AT5G55210) (Arabidopsis thaliana); test: TAP-MS, N-terminal GS tag
[20] = biological target: transcription factor (AT3G18380) (Arabidopsis thaliana); test: TAP-MS, N-terminal GS tag
[21] = biological target: unknown protein (AT1G06500) (Arabidopsis thaliana); test: TAP-MS, N-terminal GS tag
[22] = biological target: unknown, similar to At5g55210 (AT4G22320) (Arabidopsis thaliana); test: TAP-MS, N-terminal GS tag
[23] = biological target: BSH (Arabidopsis thaliana); test: TAP-MS, C-terminal GS tag
[24] = biological target: DNA-binding bromodomain-containing protein (AT1G20670) (Arabidopsis thaliana); test: TAP-MS, C-terminal GS tag
[25] = biological target: DNA-binding bromodomain-containing protein (AT1G58025) (Arabidopsis thaliana); test: TAP-MS, C-terminal GS tag
[26] = biological target: DNA-binding bromodomain-containing protein, similar to At1g20670 (AT5G55040) (Arabidopsis thaliana); test: TAP-MS, C-terminal GS tag
[27] = biological target: LFR (armadillo-repeat protein) (Arabidopsis thaliana); test: TAP-MS, C-terminal GS tag
[28] = biological target: RD21 (RESPONSIVE TO …ON 21) (Arabidopsis thaliana); test: TAP-MS, C-terminal GS tag
[29] = biological target: SNF2 protein (BRM) (Arabidopsis thaliana); test: TAP-MS, C-terminal GS tag
[30] = biological target: SWI3A (Arabidopsis thaliana); test: TAP-MS, C-terminal GS tag
[31] = biological target: SWI3B (Arabidopsis thaliana); test: TAP-MS, C-terminal GS tag
[32] = biological target: SWI3D (Arabidopsis thaliana); test: TAP-MS, C-terminal GS tag
[33] = biological target: T1, SWIRM domain-containing protein (SWI3C) (Arabidopsis thaliana); test: TAP-MS, C-terminal GS tag
[34] = biological target: T2, actin-related protein 4 (ARP4) (Arabidopsis thaliana); test: TAP-MS, C-terminal GS tag
[35] = biological target: T3, actin-related protein 7 (ARP7) (Arabidopsis thaliana); test: TAP-MS, C-terminal GS tag
[36] = biological target: electron carrier (AT1G32730) (Arabidopsis thaliana); test: TAP-MS, C-terminal GS tag
[37] = biological target: expressed protein, similar to At3g03460 (AT5G17510) (Arabidopsis thaliana); test: TAP-MS, C-terminal GS tag
[38] = biological target: expressed protein, similar to At4g22320 (AT5G55210) (Arabidopsis thaliana); test: TAP-MS, C-terminal GS tag
[39] = biological target: isocitrate dehydrogenase (AT5G03290) (Arabidopsis thaliana); test: TAP-MS, C-terminal GS tag
[40] = biological target: unknown protein (AT1G06500) (Arabidopsis thaliana); test: TAP-MS, C-terminal GS tag

GS-Swp73B
N-GS (times co-purified) [1]: 2 | N-GS (times co-purified) [2]: 1 | N-GS (times co-purified) [3]: 1 | N-GS (times co-purified) [4]: 1 | N-GS (times co-purified) [5]: 1 | N-GS (times co-purified) [6]: 3 | N-GS (times co-purified) [7]: 1 | N-GS (times co-purified) [8]: 2 | N-GS (times co-purified) [9]: 2 | N-GS (times co-purified) [10]: 2 | N-GS (times co-purified) [11]: 3 | N-GS (times co-purified) [12]: 2 | N-GS (times co-purified) [13]: 3 | N-GS (times co-purified) [14]: 3 | N-GS (times co-purified) [15]: 2 | N-GS (times co-purified) [16]: 2 | N-GS (times co-purified) [17]: 2 | N-GS (times co-purified) [18]: 2 | N-GS (times co-purified) [19]: 2 | N-GS (times co-purified) [20]: 2 | N-GS (times co-purified) [21]: 2 | N-GS (times co-purified) [22]: 1

Swp73B-GS
C-GS (times co-purified) [23]: 2 | C-GS (times co-purified) [24]: 2 | C-GS (times co-purified) [25]: 1 | C-GS (times co-purified) [26]: 1 | C-GS (times co-purified) [27]: 2 | C-GS (times co-purified) [28]: 2 | C-GS (times co-purified) [29]: 1 | C-GS (times co-purified) [30]: 2 | C-GS (times co-purified) [31]: 2 | C-GS (times co-purified) [32]: 1 | C-GS (times co-purified) [33]: 1 | C-GS (times co-purified) [34]: 1 | C-GS (times co-purified) [35]: 2 | C-GS (times co-purified) [36]: 2 | C-GS (times co-purified) [37]: 2 | C-GS (times co-purified) [38]: 2 | C-GS (times co-purified) [39]: 1 | C-GS (times co-purified) [40]: 1

Reference: patent US20120324602A1
